Test results published in PMC11695829, “DSIF factor Spt5 coordinates transcription, maturation and exoribonucleolysis of RNA polymerase II transcripts” (Nature Communications, 2025).

T1: Full-length Spt4/5 heterodimer (DSIF) (S. pombe, UniProt O13936 1-990; Q9P7K8 1-105)
T1 construct: Spt5 of S. pombe, full length; Spt4 of S. pombe, full length; Co-expressed heterodimer, used as one preformed complex in all in vitro experiments; Only the Kow5 domain of Spt5 is seen in the cryo-EM map; also called Spt5-Spt4; Spt5
T1 sequence (looked up) 1: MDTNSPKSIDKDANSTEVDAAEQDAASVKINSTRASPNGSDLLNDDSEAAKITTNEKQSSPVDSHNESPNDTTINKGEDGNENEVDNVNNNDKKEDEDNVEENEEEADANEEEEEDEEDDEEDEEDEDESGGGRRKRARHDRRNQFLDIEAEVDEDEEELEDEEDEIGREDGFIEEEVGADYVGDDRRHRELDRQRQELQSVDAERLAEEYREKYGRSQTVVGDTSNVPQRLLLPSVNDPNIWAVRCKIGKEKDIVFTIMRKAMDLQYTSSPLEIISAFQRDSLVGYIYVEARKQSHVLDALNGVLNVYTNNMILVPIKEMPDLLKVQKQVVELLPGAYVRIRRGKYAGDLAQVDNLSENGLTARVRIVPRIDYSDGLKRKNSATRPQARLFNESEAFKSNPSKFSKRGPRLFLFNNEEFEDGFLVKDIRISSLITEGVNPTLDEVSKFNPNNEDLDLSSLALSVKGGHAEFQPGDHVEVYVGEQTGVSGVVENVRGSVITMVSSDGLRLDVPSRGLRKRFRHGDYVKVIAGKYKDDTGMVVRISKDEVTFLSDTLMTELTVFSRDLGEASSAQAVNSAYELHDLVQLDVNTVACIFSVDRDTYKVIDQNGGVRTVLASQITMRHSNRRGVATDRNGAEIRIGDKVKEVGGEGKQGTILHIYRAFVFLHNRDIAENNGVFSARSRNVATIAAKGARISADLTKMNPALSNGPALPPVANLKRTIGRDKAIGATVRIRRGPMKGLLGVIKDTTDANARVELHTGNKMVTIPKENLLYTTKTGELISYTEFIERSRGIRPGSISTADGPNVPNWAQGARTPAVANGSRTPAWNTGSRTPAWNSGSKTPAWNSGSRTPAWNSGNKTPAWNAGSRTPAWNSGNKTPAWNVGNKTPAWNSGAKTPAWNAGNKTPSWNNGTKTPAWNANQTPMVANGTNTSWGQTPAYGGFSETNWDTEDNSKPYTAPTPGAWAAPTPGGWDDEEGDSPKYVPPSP
T1 sequence (looked up) 2: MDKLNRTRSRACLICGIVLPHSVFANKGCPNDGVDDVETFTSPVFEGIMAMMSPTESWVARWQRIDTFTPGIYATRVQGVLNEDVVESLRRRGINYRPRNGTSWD


Legend:
[1] = molecular target: T1, Full-length Spt4/5 heterodimer (DSIF); assay: pull-down; Rai1 immobilised on beads and challenged with Xrn2 or Xrn2/Spt4/5; no Pol II; settings: both partners purified
[2] = molecular target: C-terminally truncated Xrn2 (residues 1–885), WT (S. pombe)

binding result [1]	half-life of normalised anisotropy (a proxy for substrate half-life) in the degradation of P-RNA-FAM by Xrn2, fluorescence anisotropy; decrease in the presence of Kow5-sCTR [2]	Binder
binds	–	full-length Rai1 Strep-tagged (natural protein, S. pombe, UniProt O13836 1-352, looked up, source: Rosetta E. coli, purified (StrepTrap HP, Superdex 200)) MLREFSFYDVPPAHVPPVSEPLEIACYSLSRDRELLLDDSKLSYYYPPPLFSDLNTGFPNRFHPPKSDPDPISIVKDVLMTKGIQMNSSFLTWRGLITKIMCAPLDPRNHWETYLVMDPTSGIIMMEERTRSETSYANQDRMCYWGYKFEAISTLPEIWDACSRDQIEQRDNQDVVPDEQYCSIVKINIGKSKLILAGEVDCIWDKKPCSAKESDVHSDDGTIEEDASNAENPNLHYVELKTSKKYPLENYGMRKKLLKYWAQSFLLGIGRIIIGFRDDNGILIEMKELFTHQIPKMLRPYFKPNDWTPNRLLVVLEHALEWIKQTVKQHPPSTEFTLSYTGGSKLVLRQII
–	3 fold	Kow5-sCTR (Spt5 region 720 to 874 aa, N-terminal His-tag) (domain or fragment) LKRTIGRDKAIGATVRIRRGPMKGLLGVIKDTTDANARVELHTGNKMVTIPKENLLYTTKTGELISYTEFIERSRGIRPGSISTADGPNVPNWAQGARTPAVANGSRTPAWNTGSRTPAWNSGSKTPAWNSGSRTPAWNSGNKTPAWNAGSRTPA
